Data published in paper PMC2602759.
Values joined by “and” are separate entries in the source; they are usually repeats but may differ in a detail not shown here. Identical values can stand only once.

Columns and labels:
[1] = molecular target: HIV-1 integrase (IN) (HIV-1); assay: SEC
[2] = molecular target: HIV-1 integrase (IN) (HIV-1); assay: cross-linking

For HIV-1 integrase (IN) (enzyme), the stoichiometry N [1] was 2 and 4 and the stoichiometry N [2] was 2.
